B1: ESR2 (parent)
chain: KSCQACRLRKCYEVGMVKCGSRRE

Variants of: B1
Test: protein stability index of a GFP-peptide fusion (GPS, HEK-293T) (PSI 1-6); higher = more stable
Settings: c terminus: a fixed tail appended
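Further: lentivirally expressed fusions sorted by FACS into six bins by GFP to DsRed ratio, PSI derived from sequencing read proportions per bin multiplied by bin number.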

In order of rising protein stability index:
1. R9A  1.1
2. M16I  1.13
3. K10F  1.26
4. Q4F  1.32
5. R7A  1.32
6. S21Q  1.32
7. R22L  1.33
8. G15S  1.34
9. K18W  1.35
10. A5M  1.36
11. C11P  1.38
12. E13Y  1.38
13. G15E  1.38
14. Q4W  1.39
15. C19I  1.4
16. Y12M  1.41
17. R22F  1.41
18. E24Y  1.42
19. C19Y  1.43
20. S2F  1.45
21. K1Y  1.45
22. S2I  1.46
23. G20W  1.48
24. K10M  1.48
25. R7M  1.48
26. V14L  1.49
27. E13W  1.49
28. G15Q  1.49
29. S21W  1.5
30. C19Q  1.53
31. A5F  1.55
32. G15L  1.55
33. S2L  1.56
34. K10R  1.56
35. S21V  1.56
36. C11E  1.57
37. V14F  1.57
38. Q4G  1.58
39. S2A  1.6
40. E13V  1.6
41. R23A  1.61
42. L8D  1.61
43. A5Y  1.64
44. R7I  1.64
45. R7Q  1.66
46. V14I  1.67
47. K18M  1.67
48. E24H  1.68
49. K10Q  1.68
50. Q4P  1.68
51. C11S  1.68
52. S21I  1.69
53. E13P  1.69
54. G15A  1.69
55. V14Y  1.7
56. K18Q  1.7
57. E13Q  1.7
58. E13M  1.7
59. K1E  1.72
60. K18P  1.72
61. E24I  1.73
62. G20L  1.73
63. G20Q  1.73
64. L8V  1.73
65. K18L  1.73
66. K10W  1.74
67. K1D  1.75
68. S21D  1.75
69. M16A  1.76
70. A5W  1.77
71. R7N  1.77
72. V14M  1.77
73. S2M  1.78
74. K10G  1.78
75. C11N  1.78
76. R23G  1.79
77. C11Q  1.79
78. G15I  1.79
79. K18G  1.8
80. A5N  1.81
81. G20S  1.81
82. K10A  1.81
83. R7H  1.81
84. G15Y  1.81
85. V17R  1.82
86. C11A  1.82
87. K18T  1.82
88. R9I  1.82
89. Y12D  1.83
90. M16E  1.84
91. A5G  1.84
92. G20P  1.84
93. Q4K  1.84
94. L8Q  1.84
95. M16Y  1.85
96. R23T  1.85
97. C3W  1.85
98. S2P  1.86
99. V17W  1.86
100. Q4N  1.86
101. G15H  1.86
102. G20D  1.87
103. G20V  1.87
104. L8W  1.87
105. K1M  1.87
106. M16W  1.88
107. E24Q  1.88
108. Q4I  1.88
109. R22A  1.88
110. R9N  1.88
111. K10V  1.89
112. R7V  1.89
113. Y12L  1.89
114. S21G  1.89
115. K18A  1.89
116. C19L  1.89
117. Y12R  1.9
118. S2W  1.91
119. E24F  1.91
120. G20A  1.91
121. R22N  1.91
122. G15R  1.91
123. S2V  1.92
124. S2T  1.92
125. R22T  1.92
126. V14W  1.92
127. A5V  1.93
128. E13N  1.93
129. R9W  1.93
130. R9M  1.93
131. V17F  1.94
132. V14G  1.94
133. M16Q  1.95
134. G20C  1.95
135. K1L  1.95
136. E13R  1.95
137. S2Q  1.96
138. S2E  1.96
139. S2G  1.96
140. M16P  1.96
141. R23K  1.96
142. R23H  1.96
143. V14T  1.96
144. E13T  1.96
145. C6F  1.96
146. R22V  1.97
147. G15N  1.97
148. S2D  1.98
149. V17T  1.98
150. R22G  1.99
151. E13K  1.99
152. R9Q  1.99
153. M16G  2
154. C11W  2
155. R7G  2
156. G20F  2.01
157. S2K  2.02
158. E24N  2.02
159. R7K  2.03
160. Y12H  2.03
161. E13I  2.03
162. G15T  2.03
163. R9E  2.03
164. Q4V  2.04
165. R22Q  2.04
166. C19N  2.04
167. R9K  2.04
168. R22W  2.05
169. R7D  2.06
170. Y12Q  2.06
171. E24L  2.07
172. A5C  2.08
173. R23Y  2.09
174. A5D  2.09
175. K18E  2.09
176. M16F  2.1
177. Q4E  2.1
178. V14A  2.1
179. K1T  2.1
180. A5T  2.11
181. Q4S  2.11
182. Y12K  2.11
183. C19G  2.11
184. E24T  2.12
185. G20N  2.12
186. K10E  2.12
187. Y12P  2.13
188. S21M  2.13
189. R9V  2.13
190. M16T  2.14
191. R9L  2.14
192. M16N  2.15
193. G20Y  2.15
194. Q4L  2.15
195. Q4R  2.15
196. V17S  2.16
197. G20I  2.16
198. K10H  2.16
199. Q4T  2.17
200. L8A  2.17
201. R7P  2.17
202. V14C  2.17
203. V14D  2.17
204. G15K  2.18
205. C19A  2.18
206. E24V  2.19
207. G20T  2.19
208. C11I  2.19
209. Y12V  2.19
210. G15D  2.19
211. V17I  2.21
212. L8F  2.21
213. M16L  2.22
214. S2H  2.23
215. E13F  2.23
216. E24R  2.24
217. K10L  2.24
218. L8M  2.24
219. Y12W  2.24
220. R23S  2.25
221. C6S  2.25
222. G15C  2.25
223. V17G  2.27
224. K10N  2.27
225. L8P  2.27
226. E24D  2.28
227. C6Y  2.28
228. C19P  2.28
229. A5L  2.29
230. C11T  2.29
231. A5P  2.3
232. C11K  2.3
233. C11L  2.31
234. K1V  2.31
235. K1F  2.31
236. S21T  2.31
237. K18R  2.31
238. R23E  2.33
239. E24W  2.33
240. R22P  2.33
241. K18H  2.33
242. V14N  2.34
243. L8Y  2.35
244. R22K  2.35
245. K1P  2.35
246. G15P  2.35
247. R9P  2.35
248. L8G  2.36
249. V17M  2.37
250. C6E  2.38
251. R9Y  2.38
252. R23C  2.39
253. A5E  2.39
254. C3I  2.39
255. S21K  2.39
256. M16R  2.4
257. L8H  2.4
258. C11G  2.4
259. R23V  2.41
260. G20E  2.41
261. G20K  2.41
262. G15F  2.41
263. E13S  2.42
264. C6V  2.42
265. S2R  2.43
266. Y12N  2.43
267. M16S  2.44
268. E24A  2.44
269. S21L  2.44
270. R7T  2.46
271. C11V  2.47
272. R23D  2.48
273. A5K  2.48
274. C3M  2.48
275. G20R  2.49
276. C11R  2.5
277. R7C  2.5
278. V14K  2.5
279. R23F  2.51
280. C19D  2.51
281. C11F  2.52
282. V14S  2.52
283. C19R  2.52
284. C3V  2.54
285. K1C  2.56
286. R9F  2.56
287. C3L  2.57
288. C3T  2.57
289. S21N  2.57
290. C6A  2.57
291. R7Y  2.58
292. C3K  2.59
293. C11M  2.6
294. L8C  2.61
295. C6T  2.62
296. C3H  2.65
297. C3A  2.66
298. R9T  2.66
299. M16K  2.67
300. R7E  2.69
301. C3N  2.71
302. K1G  2.71
303. C11D  2.72
304. C6D  2.73
305. E24P  2.74
306. G20H  2.75
307. Y12C  2.78
308. K18V  2.79
309. C6H  2.81
310. M16H  2.82
311. L8S  2.83
312. Y12E  2.85
313. K18S  2.85
314. C6G  2.88
315. E13H  2.89
316. Y12A  2.9
317. E24G  2.92
318. C3P  2.92
319. S2Y  2.94
320. C3Q  2.94
321. C6Q  2.94
322. C6N  2.94
323. V17H  2.97
324. R22E  2.98
325. M16C  3.01
326. C6P  3.03
327. C6R  3.05
328. K1S  3.19
329. C3E  3.21
330. C6K  3.22
331. C3S  3.24
332. S21C  3.46
333. V17C  3.72
334. V14H  4.01

Source: the supplement of paper PMC10567573
